Measured values reported in patent US20030049605A1 (published 2003).

B1: gpIII/env3 phage (ecotropic Moloney MuLV envelope residues 34-266 displayed as a fusion with M13 gpIII) (other)
chain: ASPGSSPHQVYNITWEVTNGDRETVWATSGNHPLWTWWPDLTPDLCMLAHHGPSYWGLEYQSPFSSPPGPPCCSGGSSPGCSRDCEEPLTSLTPRCNTAWNRLKLDQTTHKSNEGFYVCPGPHRPRESKSCGGPDSFYCAYWGCETTGRAYWKPSSSWDFITVNNNLTSDQAVQVCKDNKWCNPLVIRFTDAGRRVTSWTTGHYWGLRLYVSGQDPGLTFGIRLRYQNLGPRVTSGGGGS
notes: range 34-266; Tested as whole phage particles. pelB leader left out; also called construct 3
B2: gpIII/env2 phage (ecotropic Moloney MuLV envelope residues 34-308 displayed as a fusion with M13 gpIII) (other)
chain: ASPGSSPHQVYNITWEVTNGDRETVWATSGNHPLWTWWPDLTPDLCMLAHHGPSYWGLEYQSPFSSPPGPPCCSGGSSPGCSRDCEEPLTSLTPRCNTAWNRLKLDQTTHKSNEGFYVCPGPHRPRESKSCGGPDSFYCAYWGCETTGRAYWKPSSSWDFITVNNNLTSDQAVQVCKDNKWCNPLVIRFTDAGRRVTSWTTGHYWGLRLYVSGQDPGLTFGIRLRYQNLGPRVPIGPNPVLADQQPLSKPKPVKSPSVTKPPSGTPLSPTQLPPATSGGGGS
notes: range 34-308; Tested as whole phage particles. pelB leader left out; also called construct 2
B3: gpIII/env1 phage (ecotropic Moloney MuLV envelope residues 34-468 displayed as a fusion with M13 gpIII) (other)
chain: ASPGSSPHQVYNITWEVTNGDRETVWATSGNHPLWTWWPDLTPDLCMLAHHGPSYWGLEYQSPFSSPPGPPCCSGGSSPGCSRDCEEPLTSLTPRCNTAWNRLKLDQTTHKSNEGFYVCPGPHRPRESKSCGGPDSFYCAYWGCETTGRAYWKPSSSWDFITVNNNLTSDQAVQVCKDNKWCNPLVIRFTDAGRRVTSWTTGHYWGLRLYVSGQDPGLTFGIRLRYQNLGPRVPIGPNPVLADQQPLSKPKPVKSPSVTKPPSGTPLSPTQLPPAGTENRLLNLVDGAYQALNLTSPDKTQECWLCLVAGPPYYEGVAVLGTYSNHTSAPANCSVASQHKLTLSEVTGQGLCIGAVPKTHQALCNTTQTSSRGSYYLVAPTGTMWACSTGLTPCISTTILNLTTDYCVLVELWPRVTYHSPSYVYGLFERSNRHKTSGGGGSPFVCEYQGQSSDLPQPPVNAGGGSGGGSGGGSEGGGSEGGGSEGGGSEGGGSGGGSGSGDFDYEKMANANKGAMTENADENALQSDAKGKLDSVATDYGAAIDGFIGDVSGLANGNGATGDFAGSNSQMAQVGDGDNSPLMNNFRQYLPSLPQSVECRPFVFSAGKPYEFSIDCDKINLFRGVFAFLLYVATFMYVFSTFANILRNKES
notes: Tested as whole phage particles displaying the fusion; also called construct 1

Each binder was assayed against T1, mCAT1, ecotropic retroviral receptor (cationic amino acid transporter), expressed on human 911 cells … (mouse, UniProt Q09143 1-622) (assay: phage binding to cells, elution with triethylamine, titering (cfu)).
T1 construct: whole, on cells; also called mATRC1; 911-mCAT1-3H7
T1 sequence (Q09143 whole entry): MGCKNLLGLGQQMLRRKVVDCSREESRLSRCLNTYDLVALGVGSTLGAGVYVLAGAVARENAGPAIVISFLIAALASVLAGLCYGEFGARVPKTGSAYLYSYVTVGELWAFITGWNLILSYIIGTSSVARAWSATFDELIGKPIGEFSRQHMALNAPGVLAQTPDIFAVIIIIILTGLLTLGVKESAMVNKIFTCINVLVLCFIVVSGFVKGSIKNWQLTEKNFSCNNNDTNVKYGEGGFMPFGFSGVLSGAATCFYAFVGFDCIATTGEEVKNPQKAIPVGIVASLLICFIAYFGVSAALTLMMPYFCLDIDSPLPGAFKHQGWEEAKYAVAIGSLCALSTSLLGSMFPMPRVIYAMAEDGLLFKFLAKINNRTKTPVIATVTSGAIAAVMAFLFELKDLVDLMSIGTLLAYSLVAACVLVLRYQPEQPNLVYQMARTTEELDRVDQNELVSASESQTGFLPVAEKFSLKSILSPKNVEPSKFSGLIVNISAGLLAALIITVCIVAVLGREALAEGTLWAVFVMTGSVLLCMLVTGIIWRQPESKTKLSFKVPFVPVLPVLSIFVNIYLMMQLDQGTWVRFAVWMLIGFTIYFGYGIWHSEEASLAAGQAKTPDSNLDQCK

| Binder | times more eluted phage from 911-mCAT1 cell line as compared to 911-pcDNA3 cell line [times] |
| --- | --- |
| B1 | 26 |
| B2 | 97 |
| B3 | 11 |
